From patent publication US20190248848A1

Tests used:
[1] = molecular target: histone H3 trimethylated at lysine 27 (H3K27me3) in cellular chromatin at the Tk-luciferase reporter of HEK293 Gal4-EED/luc cells; experiment: cell-based or functional assay
[2] = molecular target: biotinylated histone H3 peptide trimethylated at lysine 27, H3K27me3 (21-44) (UniProt P68431); experiment: histone peptide microspot array, 10 and 20 µM spotted H3K27me3

| Substance | luciferase activity, Tk-luciferase reporter, HEK293 Gal4-EED/luc cells, 96 hours dox (fold against PcTF) [1] | fold smaller Kd^app than PcTF [2] |
| --- | --- | --- |
| Pc2TF with the flexible linker (GGGGS)4 (MV10 mammalian expression construct, expressed in HEK293 Gal4-EED/luc cells) (from UniProt Q9HC52 1-62; Q9HC52 1-62) (designed binder) | 2 |  |
| Pc2TF, bivalent Polycomb-based transcription factor with the flexible linker (GGGGS)4 (pET28 construct; TXTL-expressed or purified from E. coli) (from UniProt Q9HC52 1-62; Q9HC52 1-62) (designed binder) |  | 2 fold |
